In the DeepSol protein solubility set:

Experiment: soluble on expression in E. coli; label from the status in PepcDB or PDB records

**Q.** For “MVAAAAATGILSLCGSPALADSHADGAATNSPGAVSGNALQVPVDVPVNACGNTVDVIAALNPAFGNECENASDEKTDGHGGGYGEDASSSSSSSTSASSSGSHADGATEGSPGVGSGNNAQVPVDVPVNLCGNTVDVIAALNPVFGNKCENDAEEPPGYGEEEPPPPTTPPGYGEEEPPPPTHEEPPPPSGEEEPPPPSEEEHTPPAPQTEQPPALAETGSEGTLGAAAAGAVLIAGGAILYRRGRALSGRLEHHHHHH”, which “soluble on expression in E. coli” value is on record?
**A.** not soluble

**Q.** With “MAQTQLSYKNKTYQISYEILGDLSLPQILILHGWGADKKLMKQSFCPFLKDFCQIYMDLAGFGNSSVEEILNTQDYANITELFLKQKKLNVCFFMGHSFGGKVSTLLAKEKDTLILLSSAGILAKKSLKVRFKIRIFKILKLFGLGKFYRYFASKDGANLSPIMYETFKKVVDEDFSEIFAKQKAKSLIFWGKSDEATPLYCGEKMHQFLKNSTFYPLEGDHFFFLKHSAFIAQKIKEI” as the sequence, how does the “soluble on expression in E. coli” value read?
**A.** not soluble

**Q.** Which “soluble on expression in E. coli” value does the source give for “MGSDKIHHHHHHMTTNCVIVSQRYPPEKGGNASRIHDTAVNLGDEFNVTVLAPSLCYPPGNFERTWKRKQTERDEGVIVHRLWTWQPQRENPSLLRRLPYYVIFALHAALWLVVNFRQYDVVMTSTPPITTGFPGLVAAAIGNPWVIDVRDLWIENSIALGYIQADSPLVKAGRTFQRLALHSADRITVTTETLRDAVGDTYGSELRDRVRVVPNGVDTDRFSSVSTPENNDSRIVYTGNIGSAQALEPCIRAMQHVSSDNALLQLVGDGDEVSRLKSVTERLGLEDRVEFVGLVDRERIPEILDSATVGLAPIKDSPELDYAIPTKLYEYMACSLPVVVTGRGEIKRFTTDTDVGIHTEPDPESIAVAIETLLENPEKRVAMGQDGHRVVSEEYDRQAIAGQLGEVFRTLTVTERRESCTTPDPDHD” here?
**A.** not soluble

**Q.** For “MHHHHHHSSGRENLYFQGMWDQRLVRLALLQHLRAFYGIKVKGVRGQCDRRRHETAATEIGGKIFGVPFNALPHSAVPEYGHIPSFLVDACTSLEDHIHTEGLFRKSGSVIRLKALKNKVDHGEGCLSSAPPCDIAGLLKQFFRELPEPILPADLHEALLKAQQLGTEEKNKATLLLSCLLADHTVHVLRYFFNFLRNVSLRSSENKMDSSNLAVIFAPNLLQTSEGHEKMSSNTEKKLRLQAAVVQTLIDYASDIGRVPDFILEKIPAML”, which “soluble on expression in E. coli” value is on record?
**A.** soluble

**Q.** With “MVAATPVQFVLPPLPEAPTAAAARLDGLSLADSGGGAGVRTVRLREALYGAGPYESADASMAELAAQIASLDRDKARSALAAVWQATVLGRPNRAANQVALAAAGGVLLLVDVAVQRLAGVRLEGGARSCSREDEEEAVMALLVLENLSCNVSLHRDMVLGAPGPHLLQMLVALAKDNTAAAAVRVNAAKVLVNLTFSQIELAAAATEAGALPAAVSLLQAGQKQALAETDAEVALGLHRQGAWLLSHLTAGQGCQARELLAAQPQALARIKDLLTTSRDTATLIRCCEVVCNLARGDVGPHAELIRAGLVQVLLKLVEVETEAPAPTGAARSEGSSVDLLLPALTALAALAAGGAACARGLLAHAPLLRTLTGALEWSNLISRDHDLSRVMLAAHSLVYVLGRFALRNRIVVPGVRAGVVVDAGMGATPAAATPQAQQVLQESGYVSFAAAMAALGLQQPRYTAAILGTELESGPHSAVASAAYQVNTELLPMMRHDNARMVVNTCARLYQIAVCLRDSPECRSVLSNTSLSLALSDLLRSQHSSVLQAALCLTDALAALPEVVPQLAANGVLDRLCDLLHNTSAQPQEHKAGTADTAGDPLVVLLAERALVTMFLTRGQHQAE” as the sequence, how does the “soluble on expression in E. coli” value read?
**A.** not soluble

**Q.** With “MATRSCVSRGSAGSAAAGPVEAAIRAKLEQALSPEVLELRNESGGHAVPAGSETHFRVAVVSSRFEGMSPLQRHRLVHEALSEELAGPVHALAIQAKTPAQWRENPQLDISPPCLG” as the sequence, how does the “soluble on expression in E. coli” value read?
**A.** soluble

**Q.** With “MPQDMSQFLQVFFEETEEHLATLELLLIGLDLDRPDSETLHGIFRAAHSIKGSSGMFGFDDITAVTHELETLLDRIRCGQMHLRPDMISSFLEARDVLQRLLDAHRSGRPDPGVPLLETVERLRGWLRVPEQEAAEEGFGLFDDAPARETADDDAFGFFDEGPGAPERAAAPEAFGLFDEAPGAPAASEAFGLFDEAPGSPPAEERAFGLFDGAPGSPAAPSAPAQAVAAPARGAVAPVRGDGESGSIRVSVEKIDSLINLVGELVITQAMLGQLGEQLDPSRHERLQHALAQLEHNTRDLQESVMSIRMLPINFIFSRFPRLVRDTATRLGKQVELHLHGEHTELDKSVIEKLSDPLTHIVRNSIDHGIETPAERLAAGKPASGTVKLAASHQGGSVVVEVSDDGRGLSRPRILAKARERNLPVHDGMSDAEVWQLVFMPGFSTAETVTELSGRGVGMDVVKRNIGAMGGRIDIDSAPGMGTRIGIRLPLTLAILDGLIVAVEAVNYVIPLTYIVESLQARSDDVRGLGGEDNAMIRVRGEYLPLFSLHELLRIGGEAPAPEQGIVVILESEGRSFALQVDELVGQQQVVIKSLEQNFRRVEGIAGATIMGDGSVALILDVDALPRLAAREDTADE” as the sequence, how does the “soluble on expression in E. coli” value read?
**A.** not soluble

**Q.** With “MSAFQGNMFVLVNVDQHRDLIGPIINQLVADYGTPVSIVDNIQKICPKCSCTPHANPDSSSVPTTTSSDEHQEEPPTPKTIAPAPIATPVLKPLLPQRESIVSNGIHPVVVKRKQSIAEEIDTPEIKKSRVVEPVKVKTETIILDDDDGNVLDTVLAALQNGNHEMQFTGSGGSSDDGASNSSNIYDVDDEDYGTSQWNPDFLTNFITSQPNIFSVTGQNIKSSPSKNAGQTPNGKRQVPPMLTVNGKTRRGRIVYSTQELNILEKYYEEDPNACADPRKRETMCKTLSIDYHRLKVWFQNRRRKDKVRSQEEAATTFNGLDYSEDS” as the sequence, how does the “soluble on expression in E. coli” value read?
**A.** not soluble

**Q.** Which “soluble on expression in E. coli” value does the source give for “MGSDKIHHHHHHMAAIGSYNITLLNRESIKENAAYPIADNVEVIALSGSLFEFYKKLKKQISSNNYDVVVVHNMGKLSLLCAFVPNIKKLVVLEHVSFISRPKKIQILSKFLYRNIDQVVTLTQNDKEQFDKFHSNVIVIPNFSPFSIASQPQNNGKQIVTIGRLTDQKNYIHLLQAWKKIYQSIPDWQLNIYGEGEQEEMLQDYIKQQSLKNVSLKGSTSNVKEVYEQSSFFVMSSKYEGLPMVLIEAQSFGLPIVSYNCPYGPSDVIRDSKNGFLVEDQNVDELAAAVLKVALSPQLLEQFSQSSLLNAKKYQPEQILKIWIEKVLEG” here?
**A.** not soluble

**Q.** For “KKILVIGDLIADYYLWGKSERLSPEAPVPVLEVQRESKNLGGAANVANNLISLKAKVFLCGVVGDDLEGEHFISALKARGIDASGILIDKTRCTTLKTRIIAQNQQIARVDKEIKDPLNADLRKKLLDFFTEKIQEIDGVILSDYNKGVLDFELTQAMIALANQHHKLILCDPKGKDYSKYSHASLITPNRTELEHALHLKLDSHANLSKALQILKETYHIAMPLVTLSEQGIAFLEKGELVNCPTIAKEVYDVTGAGDTVIASLTLSLLESMSLKDACEFANAAAAVVVGKMGSALASLEEIALILNQTHPKILSLE”, which “soluble on expression in E. coli” value is on record?
**A.** not soluble

**Q.** For “MSLSNAMTSKLERFIDQGVGRVPADIVLKGGCFFDLVTGELVQSDIAIGADRIVGTSGNYEGETEIDISGRIVVPGFIDTHLHIESSLVTPHEFDRCVLPYGVTTAICDPHEIANVLGAAGIEFFLESALETIMDIRVQLSSCVPATHLETSGADLPIESLLPYRHHPKVIGLAEFMNFPGVIHKDPICMAKLDAFQGGHIDGHAPLLSGNDLNGYLAAGIRTEHECTTASEALEKIRKGVHILVREGSVSKDLAALMPIITERLSPFLALCTDDRNPLDIAEQGHLDHMIRTAIASRVEPLAIYRAASISAARAFGLKDRGLVAPGWRADLVVLDSLENCRADMVFSAGRRVTDALFSSRRPVAPIGLDSVKARPVNAAHFGVPVAEGETPVIGVIPGKIITEHRRYRLPVRGNEAAVDLANDIIKVAVIERHGKNGNHANGFVQGFGLKKGAIASTVGHDSHNICVVGVSEDDMARAANRLSEIKGGFVVVEDGKVTGEIALPIAGLMSLEPYETVRDTLHQLRKAAFALGATLEEPFLQLAFLPLPVIPHLKISDRGMVDVDKFALIGEGHHHHHH”, which “soluble on expression in E. coli” value is on record?
**A.** soluble

**Q.** Which “soluble on expression in E. coli” value does the source give for “MQALNSISSLQTSASLFPVSLNSDVSANTSTSSKELKAVIDQLVQALTQSGQLDETSPLGKMLAKAMAADGKSANSIDDITASLDKLIHEKLGDNFGASAGIGAGGGGGGIGGAGSGSGVGGGLSSDAGAGQSDLMSQVLNGLGKAVLDDLLTPSGEGGTTFSSDDMPTLEKVAQFMDDNKAQFPTRDGGSWMNELKEDNGLDAQETAQFRSALDVIGQQLGQQQGDASGVTSGGGLGSPVSDSSLGNPAIDANTGPAANGNASVDVGQLIGQLIDRGLQSVSSGGGLGTPVDNSTQPTGGTPAANPTGNVSNQDLGQLLSGLLQRGLEATLQDAGNTGADLQSSAAQVAAQLINALLQGTNNQTNQAVALEHHHHHH” here?
**A.** soluble

**Q.** Which “soluble on expression in E. coli” value does the source give for “MTKITVVGAGSWGTALAMVLADNGHDVRIWGNRSELMDEINTKHENSRYLPGITLPSTIVAYSSLEEALVDVNVVLIVVPTKAYREVLQDMKKYVAGPTTWIHASKGIEPGTSKRISEVIEEEIPEDLIKDVVVLSGPSHAEEVGLRQATTVTSAAKRMEAAEEVQDLFMNSYFRVYTNPDIVGVELGGALKNIIALAAGITDGLGLGDNAKAALMTRGLTEIARLGRKMGGNPLTFAGLTGMGDLIVTCTSVHSRNWRAGNMLGKGHSLEEVLESMGMVVEGVRTTKAAHELAEKMEVEMPITAALYDVLFNGNNVKDAVGSLMGRVRKHEVEAIPDLL” here?
**A.** not soluble

**Q.** For “MAHHHHHHSLSLKGFVKVERRMADRTIKMLQSRGYFDSDYEIRHEGDYVLIPVKDGFTGPVVVKDAEKKPKVIPASGSFDIIGTIAITKKDDVEFAKEILKTHKNIKSVYLDKGVKGKERIRDLVLLAGIDSTVALYRENGCIFKIDVSKSYFSPRLATERRRLVDSILDGEFIVDMFAGSGPISIEVAKKRRVKIISIDINCAAIESLQESMRLNSLLGTITPICGDARQLIKDIHDADRIIMNHPTDAFSFLPCALEALKYGGHINYYEILNKDDVTKRLADFNFMRLKVFSYHRVHSYSKLSDLISFDLIREGEG”, which “soluble on expression in E. coli” value is on record?
**A.** soluble

**Q.** Which “soluble on expression in E. coli” value does the source give for “MVQNIPIYIQIHDKIKEDIEKGVWSIGDRLPSERELALKFDVSRMTLRQAIQTLADEGILERKIGSGTYVARKKVQETMTGTTSFTEITLSQNRVPSSRTVSYFVAKPSSSEMEKLQLGPEDSILRMERIRFADDIPICFEVASIPYSLVSQYGKSEITNSFYKTLEAKSGHKIGHSNQTISAVQASEQIAEYLEIKRGDAILRVRQVSYFENGLPFEYVRTQYAGSRFEFYLEK” here?
**A.** not soluble

**Q.** For “MSISGIGSYAASMLTPSRGSAGTSASAAATAADNTPATKSGSGGVQKTDFTQMTHKQLFDWVNSKIASGEMSFDESSTFISMTVSMPVDGSSMAPDDKQPVNFMQSVRDGMERALQTNDSDLFARLQTALHTMQRSQGEVRGVNMTV”, which “soluble on expression in E. coli” value is on record?
**A.** not soluble

**Q.** Which “soluble on expression in E. coli” value does the source give for “MREIVHVQAGQCGNQIGAKFWEVISDEHGIQPDGTYKGESDLQLERINVYYNEANGGKYVPRAVLVDLEPGTMDSVRSGPFGQLFRPDNFVFGQSGAGNNWAKGHYTEGAELVDNVLDVVRKEAEGCDCLQGFQLTHSLGGGTGSGMGTLLISKIREEYPDRIMSSFSVVPSPKVSDTVVEPYNATLSVHQLVENTDETFCIDNEALYDICFRTLKLSNPTYGDLNHLVSVTMSGVTTCLRFPGQLNADLRKLAVNMVPFPRLHFFMPGFAPLSAKGAQAYRALTVAELTQQMFDAKNMMAACDPRHGRYLTVAAMFRGRMSMREVDDQMMNVQNKNSSYFVEWIPNNVKTAVCDIPPRGLKMSATFIGNSTAIQELFKRISEQFTAMFRRKAFLHWYTGEGMDEMEFTEAESNMNDLVSEYQQYQEATAEEDGELDGTDGDAE” here?
**A.** not soluble
